Measured values as given in patent US20240309110A1 (DANMARKS TEKNISKE UNIVERSITET, published 2024).
Where a chain is given by its changes, count along the chain named. No end group written: not given here.

Tests used:
[1] = biological target: T1, MUC1 peptide no 11 (bisSTnMUC1): GSTAP (not fully specified (residue 2)); assay: glycopeptide microarray, signal as heat map
T1 construct: also called glycopeptide 11
T1 peptide: GST(Neu5Ac(a2-6)GalNAc)AP

[2] = biological target: T2, MUC1 peptide no 12 (monoSTnMUC1): GSTAP; assay: glycopeptide microarray, signal as heat map
T2 construct: also called glycopeptide 12
T2 peptide: GST(Neu5Ac(a2-6)GalNAc)AP

[3] = biological target: T3, MUC1 peptide no 1 (bisTn-MUC1): Btn-Ahx-SAPDTRPAPGS*T*APPAHGVTSAPD-OH (N-terminal Btn-Ahx (biotin-aminohexyl); GalNAc (Tn) on the Ser and the Thr marked * in GS*T*AP); assay: glycopeptide microarray
T3 construct: Synthetic MUC1 glycopeptide; also called peptide 1; target peptide 1
T3 peptide: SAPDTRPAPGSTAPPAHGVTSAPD

[4] = biological target: MUC1 20-mer glycopeptide no. 29 of Table 5 (…, no Ala substitution) (GalNAc sites are shown in bold and underlined in Table 5; the marks are lost in the text); assay: glycopeptide microarray (20-mer MUC1 Tn-glycopeptides printed on a chip), RFU as heat map
MUC1 20-mer glycopeptide no. 29 of Table 5 (…, no Ala substitution) (GalNAc sites are shown in bold and underlined in Table 5; the marks are lost in the text), sequence (peptide, as listed by the source): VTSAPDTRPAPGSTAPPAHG

[5] = biological target: T4, MUC1 20-mer glycopeptide no. 24 of Table 5 (VTSAPDTRPAPGSAAPPAHG, Thr to Ala) (GalNAc sites are shown in bold and underlined in Table 5; the marks are lost in the text); assay: glycopeptide microarray
T4 peptide: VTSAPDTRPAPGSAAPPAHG

AHGVTSAPDTR = biological target: T5, AHGVTSAPDTR (T13 and S14 carry GalNAc (Tn), bold and underlined on the sheet); assay: glycopeptide microarray (20-mer MUC1 Tn-glycopeptides printed on a chip), RFU as heat map
T5 construct: also called MUC1 20-mer glycopeptide no
T5 peptide: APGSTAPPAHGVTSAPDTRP

PAPGSTAAPAH = biological target: T6, PAPGSTAAPAH (S13 and T14 carry GalNAc (Tn), bold and underlined on the sheet); assay: as above
T6 construct: also called MUC1 20-mer glycopeptide no
T6 peptide: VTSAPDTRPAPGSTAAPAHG

[6] = biological target: T3, MUC1 peptide no 1 (bisTn-MUC1): …; assay: glycopeptide microarray, bar chart with single points [panel C7]
[7] = biological target: T3, MUC1 peptide no 1 (bisTn-MUC1): …; assay: glycopeptide microarray, bar chart with single points [panel C4]
[8] = biological target: T3, MUC1 peptide no 1 (bisTn-MUC1): …; assay: glycopeptide microarray, bar chart with single points [panel D3]

B1: scFv G2D11 mutant M1 (LAL) (scFv)
scFv: DVVMTQSHKFMSTSVGDRVSITCKASQDVGTAVAWYQQKPGQSPKLLIYWASTRHTGVPDRFTGSGSGTDFTLTISNVQSEDLADYFCQQYSSYPLTFGGGTKLEMKRGGGGSGGGGSGGGGSGGGGSQVQMQQSDAELVKPGASVKISCKASGYIFADHAIHWVKRKPEQGLEWIGYISPGNDDIKYNEKFKGKATLTADKSSSTAYMQLNSLTSEDSAVYFCKRSLLALDYWGQGTTLTVSS
notes: Mutant of scFv G2D11 with the mutations in the VH domain; '-' stands for the deletion of G102; also called LAL mutant M1
binding result [1]: no binding
binding result [2]: no binding
binding result [3]: no binding

B2: scFv G2D11 mutant M2 (LAL-TFT) (scFv)
scFv: B1 scFv with I156T, A158T
notes: also called LAL+TFT mutant M2
binding result [3]: no binding

B3: scFv 2D9Chi (scFv, V domains shown)
VH: not shown
VL: DIVMSQSPSSLAVSVGEKVTMSCKSSQSLLYSSDQKNYLAWYQQKPGQSPKLLIYWASTRESGVPDRFTGSGSGTDFTLTISSVKAEDLAVYYCQQCYSYPFTFGSGTKLERKR
notes: 2D9Chi comprises the 2D9 VL domain and G2D11 VH domain
binding result [4]: no binding

B4: scFv 5E5 (scFv, V domains shown)
VH: QSDAELVKPGSSVKISCKASGYTFTDHAIHWVKQKPEQGLEWIGHFSPGNTDIKYNDKFKGKATLTVDRSSSTAYMQLNSLTSEDSAVYFCKTSTFFFDYWGQGTTLTVSS
VL: ELVMTQSPSSLTVTAGEKVTMICKSSQSLLNSGDQKNYLTWYQQKPGQPPKLLIFWASTRESGVPDRFTGSGSGDFTLTISSVQAEDLAVYYCQNDYSYPLTFGAGTKLELK
notes: Single chain Fv in the microarray; also called svFV 5E5
binding result [5]: no binding
binding result (AHGVTSAPDTR): no binding
binding result (PAPGSTAAPAH): no binding

B5: scFv G2D11 mutant M4 (TFT-G) (scFv)
scFv: DVVMTQSHKFMSTSVGDRVSITCKASQDVGTAVAWYQQKPGQSPKLLIYWASTRHTGVPDRFTGSGSGTDFTLTISNVQSEDLADYFCQQYSSYPLTFGGGTKLEMKRGGGGSGGGGSGGGGSGGGGSQVQMQQSDAELVKPGASVKISCKASGYTFTDHAIHWVKRKPEQGLEWIGYISPGNGDIKYNEKFKGKATLTADKSSSTAYMQLNSLTSEDSAVYFCKRSLPGTFDYWGQGTTLTVSS
notes: The only mutant without LAL; also called TFT mutation only
binding result [2]: no binding

B6: scFv C7-STnMUC1 (scFv)
scFv: VVVTQTPLSLPVSLGDQASISCRSSQSLVHSNGNTYLHWYLQKPGQSPKLLIYKVSNRFSGVPDRFSGSGSGTDFTLKISRVEAEDLGVYFCSQSTHVPRTFGGGTKLEIKRGGGSGGGSGGGSGGGSGGGSQVQMQQSDAELVKPGASVKISCKASGYTFTDHAIHWVKRKPEQGLEWIGYISPGNDDIKYNEKFKGKATLTADKSSSTAYMQLNSLTSEDSAVYFCKRSLLALDYWGQGTTLTVSS
notes: From the STn-template library
binding result [6]: no binding

B7: scFv C4-STnMUC1 (scFv)
scFv: IVMTQSPSSLAVSAGEKVTMSCKSSQSLLNSRTRKNYLAWYQQKPGQSPKLLIYWASTRHTGVPDRFTGSGSGTDFTLTISNVQSEDLAEYFCQQYNSYPYTFGGGTKLEIKRGGGSGGGSGGGSGGGSGGGSQVQMQQSDAELVKPGASVKISCKASGYTFTDHAIHWVKRKPEQGLEWIGYISPGNDDIKYNEKFKGKATLTADKSSSTAYMQLNSLTSEDSAVYFCKRSLLALDYWGQGTTLTVSS
notes: From the STn-template library
binding result [7]: no binding

B8: scFv D3-STnMUC1 (scFv)
scFv: B7 scFv
notes: From the STn-template library
binding result [8]: no binding
